In general, IC50 refers to the midpoint of a concentration-inhibition curve. A lower IC50 goes with inhibition by little substance. What is called EC50 is the concentration giving half of the maximal effect.

The text below walks through data of patent publication US20190352402A1 (NANJING LEADS BIOLABS, published 2019).

The target of test [1] is T1, Human PD-1 (prepared in Leadsbiolabs, amino acid sequence of NP_005009.2 set forth in SEQ ID NO.: 66) (human, UniProt Q15116 25-170, limits assumed). Briefly: blocking ELISA, human PD-1 coated, blocked ligand human PD-L1-mouse Fc-tag. On the technique in general: In an ELISA, binding on a coated surface is turned into a signal by an enzyme label.
T1 sequence (Q15116 25-170 limits assumed): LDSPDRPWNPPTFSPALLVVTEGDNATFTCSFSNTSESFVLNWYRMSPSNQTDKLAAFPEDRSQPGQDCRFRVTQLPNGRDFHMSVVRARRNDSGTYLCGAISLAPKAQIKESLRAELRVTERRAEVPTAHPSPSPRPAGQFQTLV
The target of test [2] is T1, Human PD-1 (prepared in Leadsbiolabs, …). The description is as above. The source holds these as a separate data set.
The target of test [3] is T2, human PD-1 of SEQ ID NO.: 66 stably expressed on transfected cells (CHO-K1-PD-1 cells; Jurkat-NFAT-PD1 cells) (human, UniProt Q15116 25-288).
T2 construct: also called cell surface PD-1; PD-1 expressed on CHO-K1-PD-1 cells
T2 sequence (Q15116 25-288 limits assumed): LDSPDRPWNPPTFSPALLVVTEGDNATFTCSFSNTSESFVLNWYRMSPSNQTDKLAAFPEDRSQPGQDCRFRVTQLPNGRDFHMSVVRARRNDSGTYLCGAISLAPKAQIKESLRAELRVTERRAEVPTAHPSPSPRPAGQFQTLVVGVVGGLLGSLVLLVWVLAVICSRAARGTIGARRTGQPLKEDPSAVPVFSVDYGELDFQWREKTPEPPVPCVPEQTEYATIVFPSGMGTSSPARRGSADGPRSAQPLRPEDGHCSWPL
Briefly: flow cytometry on CHO-K1 cells stably expressing human PD-1, MFI. (A flow cytometer gives signals particle by particle.)

Test [4] concerns the target T1, Human PD-1 (prepared in Leadsbiolabs, …). Briefly: blocking ELISA, human PD-1 coated, blocked ligand human PD-L1-mouse Fc-tag. This is another data set of the same source.
For test [5], the target named is T3, Human PD-1 protein (SINO Biological Inc., Cat#10377-H08H-100) (human, UniProt Q15116 25-167).
T3 construct: Bought protein
T3 sequence (Q15116 25-167 limits assumed): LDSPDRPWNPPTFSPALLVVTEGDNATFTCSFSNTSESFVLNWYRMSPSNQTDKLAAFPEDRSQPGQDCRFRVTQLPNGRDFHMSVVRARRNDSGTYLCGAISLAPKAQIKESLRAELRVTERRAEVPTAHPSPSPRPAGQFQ
The test can be described thus: ELISA, human PD-1 coated at 25 ng/well, detection with anti-human F(ab')2-HRP.

The target in test [6] is T1, Human PD-1 (prepared in Leadsbiolabs, …). Briefly: blocking ELISA, human PD-1 coated, blocked ligand human PD-L1-mouse Fc-tag. The source holds these as a separate data set.
The target in test [7] is T3, Human PD-1 protein (SINO Biological …). Briefly: ELISA, human PD-1 coated at 25 ng/well, detection with anti-human F(ab')2-HRP. This is another data set of the same source.
The target is the same in test [8]. Described as above. The source holds these as a separate data set.
Test [9] has the same target. Described as above. The source holds these as a separate data set.
Test [10] deals with T1, Human PD-1 (prepared in Leadsbiolabs, …). The test can be described thus: blocking ELISA, human PD-1 coated, blocked ligand human PD-L1-mouse Fc-tag; x axis printed as log values -1 to 2.
Test [11] addresses Human FcγRI (Acrobiosystems, Cat# FCA-H52H2) (human, UniProt P12314 16-288). The test can be described thus: ELISA, human FcγRI coated, detection with anti-human F(ab')2-HRP.
The target of test [12] is T4, cynomolgus PD-1-his protein (Acrobiosystems, Cat# PD1-05223) (cynomolgus monkey, UniProt B0LAJ3 25-170).
T4 construct: also called cynoPD-1-his; cynomolgus PD-1 protein
T4 sequence (B0LAJ3 entry or part of it limits assumed): as the sequence (Q15116 25-170 limits assumed) above, with D2E, P10A, V19L, T35A, Q75R, T144A counted along it
Briefly: ELISA, cynomolgus PD-1 coated at 25 ng/well.

Test [13] deals with T1, Human PD-1 (prepared in Leadsbiolabs, …). The test can be described thus: blocking ELISA, human PD-1 coated, blocked ligand human PD-L1-mouse Fc-tag; fit value printed in the table although the control's curve does not fall (see non_binding).
Test [14] has as its target T3, Human PD-1 protein (SINO Biological …). The test can be described thus: ELISA, human PD-1 coated at 25 ng/well.
Test [15] addresses T5, human CTLA-4 (Acrobiosystems, Cat# CT4-H5229) (human, UniProt P16410 36-161).
T5 sequence (looked up): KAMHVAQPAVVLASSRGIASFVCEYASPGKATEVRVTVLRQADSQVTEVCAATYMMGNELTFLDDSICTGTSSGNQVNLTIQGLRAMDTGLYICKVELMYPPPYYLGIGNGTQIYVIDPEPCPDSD
The test can be described thus: ELISA, human CTLA-4 coated at 25 ng/well.

In test [16] the target is T6, Human ICOS (Acrobiosystems, Cat# ICS-H5250) (human, UniProt Q9Y6W8 21-140, limits assumed).
T6 sequence (looked up): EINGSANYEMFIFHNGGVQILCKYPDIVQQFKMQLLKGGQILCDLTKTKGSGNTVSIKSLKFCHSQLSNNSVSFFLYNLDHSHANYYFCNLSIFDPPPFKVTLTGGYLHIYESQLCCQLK
The test can be described thus: ELISA, human ICOS coated at 25 ng/well.

Test [17] addresses T7, human BTLA (Acrobiosystems, Cat# BTA-H52E0) (human, UniProt Q7Z6A9 31-150, limits assumed).
T7 sequence (looked up): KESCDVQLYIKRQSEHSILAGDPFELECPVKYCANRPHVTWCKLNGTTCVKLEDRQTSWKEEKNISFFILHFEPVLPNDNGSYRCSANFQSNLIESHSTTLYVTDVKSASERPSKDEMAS
Briefly: ELISA, human BTLA coated at 25 ng/well.

Test [18] deals with T8, cynomolgus PD-1 expressed on stimulated cynomolgus PBMCs (cynomolgus monkey, UniProt B0LAJ3 25-288).
T8 construct: also called monkey PD-1; PD-1 expressed on cynomolgus monkey PBMCs
T8 sequence (B0LAJ3 entry or part of it limits assumed): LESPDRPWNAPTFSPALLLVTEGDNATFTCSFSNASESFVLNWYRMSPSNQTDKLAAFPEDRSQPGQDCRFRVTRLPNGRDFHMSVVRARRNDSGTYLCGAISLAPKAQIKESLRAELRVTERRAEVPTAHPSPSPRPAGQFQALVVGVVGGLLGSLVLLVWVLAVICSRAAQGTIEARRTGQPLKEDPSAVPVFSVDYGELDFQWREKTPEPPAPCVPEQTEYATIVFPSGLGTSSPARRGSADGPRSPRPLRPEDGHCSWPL
Briefly: flow cytometry on cynomolgus PBMCs after SEB stimulation, MFI.

The target of test [19] is T9, mouse PD-1 protein (SINO Biological Inc., Cat#50124-M08H) (mouse, UniProt Q02242 25-167).
T9 sequence (looked up): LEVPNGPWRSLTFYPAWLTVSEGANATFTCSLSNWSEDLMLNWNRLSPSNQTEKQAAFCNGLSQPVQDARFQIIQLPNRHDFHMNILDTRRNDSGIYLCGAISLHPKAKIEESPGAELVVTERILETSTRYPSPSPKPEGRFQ
The test can be described thus: ELISA, mouse PD-1 coated at 25 ng/well.

Where two headings read alike, the source gives them in different places.

Chain of Human FcγRI (Acrobiosystems, Cat# FCA-H52H2) (P12314 16-288 limits assumed): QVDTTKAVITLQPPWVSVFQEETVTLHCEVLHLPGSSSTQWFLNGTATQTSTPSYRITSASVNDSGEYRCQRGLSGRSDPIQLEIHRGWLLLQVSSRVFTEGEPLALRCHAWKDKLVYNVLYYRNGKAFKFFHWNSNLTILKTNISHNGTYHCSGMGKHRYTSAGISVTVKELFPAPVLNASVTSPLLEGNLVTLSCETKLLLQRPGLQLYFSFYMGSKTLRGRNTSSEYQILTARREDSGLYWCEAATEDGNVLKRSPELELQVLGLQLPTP

B1: anti-PD-1 antibody 21F12 (mutant IgG1 constant region of SEQ ID NO: 18) (antibody, V domains shown)
VH: QMQLVQSGAEVKKPGASVKLSCKASGYIFTSYYIHWVRQAPGQGLEWVGVINPSGGSTTYAQKFQGRVTMTRDTSISTAYMELSRLRSDDTVVYYCARGSYSSGWDYYYYYGMDVWGKGTLVTVSS
VL: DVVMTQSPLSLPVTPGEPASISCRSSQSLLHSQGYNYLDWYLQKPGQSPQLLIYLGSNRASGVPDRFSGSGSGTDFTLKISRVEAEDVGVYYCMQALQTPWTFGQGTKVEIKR
notes: Full length IgG expressed in CHO-S cells
In the case of B1, the IC50 in [1] was determined as 0.716 nM; in test [2] it was 0.834 nM; in test [4], 0.913 nM; in test [6], 0.684 nM. Also, the EC50 came out at 1.06 nM in test [3] and 0.0447 nM in test [5].

B2: anti-PD-1 antibody 21F12-1C4 (mutant IgG1 constant region of SEQ ID NO: 18) (antibody, V domains shown)
VH: QMQLVQSGAEVKKPGASVKLSCKASDYIFTSYYIHWVRQAPGQGLEWVGVINPSGGSTTYAQKFQGRVTMTRDTSISTAYMELSRLRSDDTVVYYCARGSYSSGWDYYYYYGMDVWGKGTLVTVSS
VL: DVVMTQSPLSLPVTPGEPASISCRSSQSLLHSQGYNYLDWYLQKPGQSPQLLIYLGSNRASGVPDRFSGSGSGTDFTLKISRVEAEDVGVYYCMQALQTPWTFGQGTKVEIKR
notes: mutant IgG1
Turning to B2, inhibition in test [1] was half-maximal at 0.558 nM (IC50). This molecule registered an EC50 in [3] of 0.479 nM.

B3: anti-PD-1 antibody 21F12-1E11 (mutant IgG1 constant region of SEQ ID NO: 18) (antibody, V domains shown)
VH: QMQLVQSGAEVKKPGASVKLSCKASGYFFQSYYIHWVRQAPGQGLEWVGVINPSGGSTTYAQKFQGRVTMTRDTSISTAYMELSRLRSDDTVVYYCARGSYSSGWDYYYYYGMDVWGKGTLVTVSS
VL: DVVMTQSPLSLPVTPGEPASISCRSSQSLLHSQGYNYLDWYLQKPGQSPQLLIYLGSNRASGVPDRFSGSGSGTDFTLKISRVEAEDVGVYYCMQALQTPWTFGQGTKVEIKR
notes: mutant IgG1
Turning to B3, the results for the EC50 in test [7] and in test [8] were 0.0936 nM and 0.0914 nM, respectively. Further, the half-maximal inhibitory concentration (IC50) in test [4] was 0.653 nM.

B4: anti-PD-1 antibody 21F12-1B12 (mutant IgG1 constant region of SEQ ID NO: 18) (antibody, V domains shown)
VH: QMQLVQSGAEVKKPGASVKLSCKASGYPFQSYYIHWVRQAPGQGLEWVGVINPSGGSTTYAQKFQGRVTMTRDTSISTAYMELSRLRSDDTVVYYCARGSYSSGWDYYYYYGMDVWGKGTLVTVSS
VL: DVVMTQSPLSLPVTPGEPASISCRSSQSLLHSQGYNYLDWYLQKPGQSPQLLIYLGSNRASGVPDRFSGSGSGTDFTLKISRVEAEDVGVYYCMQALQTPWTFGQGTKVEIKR
notes: mutant IgG1
With B4, the EC50 in [7] stood at 0.102 nM; in test [9], 0.0936 nM; in [3], 0.257 nM. Further, the IC50 turned out to be 0.623 nM in test [4] and 0.725 nM in test [10].

B5: anti-PD-1 antibody 21F12-2H7 (mutant IgG1 constant region of SEQ ID NO: 18) (antibody, V domains shown)
VH: QMQLVQSGAEVKKPGASVKLSCKASQYIFQSYYIHWVRQAPGQGLEWVGVINPSGGSTTYAQKFQGRVTMTRDTSISTAYMELSRLRSDDTVVYYCARGSYSSGWDYYYYYGMDVWGKGTLVTVSS
VL: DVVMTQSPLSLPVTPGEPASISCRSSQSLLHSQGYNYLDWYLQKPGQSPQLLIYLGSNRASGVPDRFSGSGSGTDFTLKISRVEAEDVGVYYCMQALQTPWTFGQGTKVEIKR
notes: mutant IgG1
Consider B5, for which the EC50 in test [7] came to 0.101 nM. The same molecule registered an IC50 in test [4] of 1.15 nM.

B6: anti-PD-1 antibody 21F12-1E10 (mutant IgG1 constant region of SEQ ID NO: 18) (antibody, V domains shown)
VH: QMQLVQSGAEVKKPGASVKLSCKASGYPFTSYYIHWVRQAPGQGLEWVGVINPSGGSTTYAQKFQGRVTMTRDTSISTAYMELSRLRSDDTVVYYCARGSYSSGWDYYYYYGMDVWGKGTLVTVSS
VL: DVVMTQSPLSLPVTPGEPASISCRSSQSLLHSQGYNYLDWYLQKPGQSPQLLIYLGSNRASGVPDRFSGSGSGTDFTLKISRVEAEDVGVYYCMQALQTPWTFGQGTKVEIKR
notes: mutant IgG1
For the molecule B6, the EC50 in [3] worked out at 0.464 nM; in test [8], 0.111 nM. Also, half-maximal inhibition in test [6] (IC50) was put at 0.482 nM.

B7: anti-PD-1 antibody 21F12-2E1 (mutant IgG1 constant region of SEQ ID NO: 18) (antibody, V domains shown)
VH: QMQLVQSGAEVKKPGASVKLSCKASEYIFQSYYIHWVRQAPGQGLEWVGVINPSGGSTTYAQKFQGRVTMTRDTSISTAYMELSRLRSDDTVVYYCARGSYSSGWDYYYYYGMDVWGKGTLVTVSS
VL: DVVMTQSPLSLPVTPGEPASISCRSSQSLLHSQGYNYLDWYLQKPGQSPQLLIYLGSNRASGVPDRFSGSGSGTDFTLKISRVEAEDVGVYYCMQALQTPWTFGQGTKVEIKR
notes: mutant IgG1
As to B7, the response in test [7] was half-maximal at 0.136 nM (EC50). For the same molecule, the 50% inhibitory concentration (IC50) in test [4] was determined as 1.1 nM.

B8: anti-PD-1 antibody 21F12-3G1 (mutant IgG1 constant region of SEQ ID NO: 18) (antibody, V domains shown)
VH: QMQLVQSGAEVKKPGASVKLSCKASGYIFTSYYIHWVRQAPGQGLEWVGVINPSGGSTTYAQKFQGRVTMTRDTSISTAYMELSRLRSDDTVVYYCARGSYNSGWDYYYYYGMDVWGKGTLVTVSS
VL: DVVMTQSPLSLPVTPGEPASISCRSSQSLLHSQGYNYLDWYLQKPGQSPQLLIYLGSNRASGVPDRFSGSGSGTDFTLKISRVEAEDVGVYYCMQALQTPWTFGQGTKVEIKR
notes: mutant IgG1
Take B8: in [2], 0.699 nM corresponded to half-maximal inhibition (IC50). Further, the results for the EC50 in [3] and in [8] were 0.334 nM and 0.108 nM, respectively.

B9: Rituximab analog (antibody, human IgG1, kappa)
heavy: not shown
light: QIVLSQSPAILSASPGEKVTMTCRASSSVSYIHWFQQKPGSSPKPWIYATSNLASGVPVRFSGSGSGTSYSLTISRVEAEDAATYYCQQWTSNPPTFGGGTKLEIKRTVAAPSVFIFPPSDEQLKSGTASVVCLLNNFYPREAKVQWKVDNALQSGNSQESVTEQDSKDSTYSLSSTLTLSKADYEKHKVYACEVTHQGLSSPVTKSFNRGEC
notes: Wild type IgG1 heavy chain constant region; also called positive control of the FcγRI ELISA
Take B9: the binding result in test [11] is recorded as “binds”.

B10: IgG Control (antibody, V domains shown)
VH: QVQLQESGGGVVRPGGSLRLSCAASGFTFDDYGMSWVRQAPGKGLEWVSGINWSGGSTYYADSVKGRSTISRDNSKNTLYLQMNSLRAEDTAVYYCATGGYWGQGTLVTVSS
VL: not shown
notes: also called human IgG control
For B10, the binding result in [12] and in test [14] was “no binding (tested: about 2 nM)” each time. The 50% inhibitory concentration (IC50) in test [13] was found to be 3.77 nM.

B11: Nivolumab analog (antibody, human IgG4 S228P, kappa, V domains shown)
VH: QVQLVESGGGVVQPGRSLRLDCKASGITFSNSGMHWVRQAPGKGLEWVAVIWYDGSKRYYADSVKGRFTISRDNSKNTLFLQMNSLRAEDTAVYYCATNDDYWGQGTLVTVSS
VL: EIVLTQSPATLSLSPGERATLSCRASQSVSSYLAWYQQKPGQAPRLLIYDASNRATGIPARFSGSGSGTDFTLTISSLEPEDFAVYYCQQSSNWPRTFGQGTKVEIKR
notes: also called positive control
B11: the binding result in [15], in [16], in test [17] and in [19] was “no binding (tested: about 2 nM)” in each case. This molecule also had a half-maximal effective concentration (EC50) in test [18] of 0.692 nM.
